Test results reported in article PMC7116205.

Sequence of syntaxin 1A 1-288 (rat) (P32851 whole entry T251I): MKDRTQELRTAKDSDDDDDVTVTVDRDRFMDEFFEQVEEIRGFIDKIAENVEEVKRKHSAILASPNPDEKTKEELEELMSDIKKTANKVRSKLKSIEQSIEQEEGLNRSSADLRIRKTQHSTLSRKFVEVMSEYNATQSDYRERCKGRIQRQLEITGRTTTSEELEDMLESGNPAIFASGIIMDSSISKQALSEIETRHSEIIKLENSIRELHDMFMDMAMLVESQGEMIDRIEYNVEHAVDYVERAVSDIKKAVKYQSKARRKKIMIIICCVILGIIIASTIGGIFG
Sequence of VAMP2 (1-116) (mouse) (P63044 other isoform, or with tags, fused parts or gaps): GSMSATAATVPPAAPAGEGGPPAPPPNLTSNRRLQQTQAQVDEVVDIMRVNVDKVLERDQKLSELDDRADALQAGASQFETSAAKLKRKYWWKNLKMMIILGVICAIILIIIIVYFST

| share of the cross-links that stay SDS sensitive (not in SDS-resistant cis v/t-SNARE complexes) after Ca2+ (VAMP2 (1-116) (mouse)) [%] | share of the cross-links that are SDS sensitive (not in SDS-resistant cis v/t-SNARE complexes) after Ca2+, unboiled samples (syntaxin 1A 1-288 (rat)) [%] | Substance |
| --- | --- | --- |
| 74 | – | CpxII A40BPA (natural protein) |
| – | 14 | CpxII H52BPA (natural protein) |
